In article PMC12333349, “Endogenous Aquaporin‑0 Lipid Binding in Ocular Lens Tissue via Native Mass Spectrometry” (Journal of the American Society for Mass Spectrometry, 2025):

Biological target: the molecule itself
Experiment: native MS; crude bovine lens cortex or nucleus membrane preparation, solubilised in 1% OG, exchanged into 200 mM ammonium acetate, 2x CMC C8E4; static nanospray, Q Exactive UHMR; HCD at 200 V fragmented the tetramer mainly into monomers

B1: Aquaporin-0 (natural protein, bovine, UniProt P06624 1-263, looked up)
chain: MWELRSASFWRAICAEFFASLFYVFFGLGASLRWAPGPLHVLQVALAFGLALATLVQAVGHISGAHVNPAVTFAFLVGSQMSLLRAICYMVAQLLGAVAGAAVLYSVTPPAVRGNLALNTLHPGVSVGQATIVEIFLTLQFVLCIFATYDERRNGRLGSVALAVGFSLTLGHLFGMYYTGAGMNPARSFAPAILTRNFTNHWVYWVGPVIGAGLGSLLYDFLLFPRLKSVSERLSILKGSRPSESNGQPEVTGEPVELKTQAL
notes: Aquaporin-0 (AQP0), bovine lens; the most abundant species is full-length AQP0, tetramer average mass 112,898 Da; Lower-abundance singly and doubly phosphorylated tetramers were also detected; Samples were in 200 mM ammonium acetate with 2x CMC C8E4 (residual OG possible); also called AQP0; crude AQP0; source: endogenous, bovine lens cortex and nucleus: crude urea-washed membrane pellets …
  stoichiometry N: 4
